This passage reports IC50 results from the Immune Epitope Database (IEDB).

As usually defined, the IC50 is the concentration that inhibits the measured activity by half.

One test addresses HLA-A*02:02. In words: IEDB peptide-MHC binding, purified MHC/competitive/radioactivity; ≥ and ≤ were set here for values at or beyond the usual limits of such assays.
Test [1] has as its target HLA-A*02:01. Described as above.
The target of another test is HLA-A*02:03. In words: IEDB peptide-MHC binding, cellular MHC/competitive/fluorescence; ≥ and ≤ were set here for values at or beyond the usual limits of such assays.
Test [2] deals with HLA-A*02:06. The description is as above.
The target in test [3] is HLA-A*68:02. The description is as above.
Test [4] has as its target HLA-A*68:02. The test is described as follows: IEDB peptide-MHC binding, purified MHC/competitive/radioactivity; ≥ and ≤ were set here for values at or beyond the usual limits of such assays.
Test [5] has as its target HLA-A*02:01. The test is described as follows: IEDB peptide-MHC binding, cellular MHC/competitive/fluorescence; ≥ and ≤ were set here for values at or beyond the usual limits of such assays.
Test [6] has as its target HLA-A*02:06. In words: IEDB peptide-MHC binding, purified MHC/competitive/radioactivity; ≥ and ≤ were set here for values at or beyond the usual limits of such assays.
Setting [7] is: source organism: Vaccinia virus WR.
The mark [8] stands for this setting: source organism: Influenza A virus.
Where [9] appears, read: source organism: Mammarenavirus machupoense.
The mark [10] stands for this setting: source organism: Mammarenavirus guanaritoense.

Where only a bound is given, the exact number is not on record here.

As for ALWDSNFFT, the concentration for half-maximal inhibition (IC50) with HLA-A*02:02 (setting [7]) amounted to 1.06 µM; with HLA-A*02:01 [1] (setting [7]), 3.69 µM; with HLA-A*02:03 (setting [7]), 28.2 µM; with HLA-A*02:06 [2] (setting [7]) it was 23.1 µM; in the test with HLA-A*68:02 [3] (setting [7]) it was 7.41 µM.

Regarding CTSEIQNVT, the 50% inhibitory concentration (IC50) amounted to 0.188 µM with HLA-A*02:02 (setting [7]); 0.09 µM with HLA-A*68:02 [4] (setting [7]); 5.19 µM with HLA-A*02:03 (setting [7]); 10.2 µM in the test with HLA-A*02:06 [2] (setting [7]); 13.5 µM with HLA-A*02:01 [5] (setting [7]).

Take DAEFVMCLEA: the IC50 with HLA-A*02:02 (setting [7]) was determined as 2.41 µM; in the test with HLA-A*68:02 [4] (setting [7]) it was 1.59 µM; with HLA-A*02:03 (setting [7]) it was 7.3 µM; with HLA-A*02:06 [2] (setting [7]), 12.7 µM; in the test with HLA-A*02:01 [5] (setting [7]), 9.14 µM.

As to DIYDAVRAFL, the IC50 with HLA-A*02:02 (setting [7]) is 1.46 µM; with HLA-A*68:02 [4] (setting [7]), 0.257 µM; with HLA-A*02:03 (setting [7]), 6.95 µM; with HLA-A*02:06 [2] (setting [7]), 12.1 µM; in the test with HLA-A*02:01 [5] (setting [7]) it was 5.42 µM.

With DTCLLAISA, the IC50 with HLA-A*02:02 (setting [7]) is 4.33 µM; in the test with HLA-A*68:02 [4] (setting [7]) it was 0.316 µM; with HLA-A*02:03 (setting [7]), 6.45 µM; with HLA-A*02:06 [2] (setting [7]), 25.2 µM; in the test with HLA-A*02:01 [5] (setting [7]), 6.69 µM.

Consider DTSNNIAEYI, for which the IC50 with HLA-A*02:02 (setting [7]) was determined as 3.33 µM; with HLA-A*68:02 [4] (setting [7]) it was 0.047 µM; in the test with HLA-A*02:03 (setting [7]), 9.22 µM; in the test with HLA-A*02:06 [2] (setting [7]), 45.7 µM; in the test with HLA-A*02:01 [5] (setting [7]), 6.29 µM.

On to DVQRTRCKYV, for which the IC50 with HLA-A*02:02 (setting [7]) worked out at 1.07 µM; in the test with HLA-A*02:01 [1] (setting [7]), 1.57 µM; in the test with HLA-A*68:02 [4] (setting [7]) it was 1.46 µM; in the test with HLA-A*02:03 (setting [7]), 6.46 µM; with HLA-A*02:06 [2] (setting [7]) it was 9.51 µM.

Consider EIARIENEM, for which the half-maximal inhibitory concentration (IC50) is 0.335 µM with HLA-A*02:02 (setting [7]); 0.0084 µM with HLA-A*68:02 [4] (setting [7]); 47.9 µM with HLA-A*02:03 (setting [7]); not below 70 µM with HLA-A*02:06 [2] (setting [7]); not below 70 µM with HLA-A*02:01 [5] (setting [7]).

In the case of ELPYVGDTSM, the IC50 in the test with HLA-A*02:02 (setting [7]) came to 4.13 µM; in the test with HLA-A*68:02 [4] (setting [7]) it was 0.913 µM; in the test with HLA-A*02:03 (setting [7]), 14.2 µM; with HLA-A*02:06 [2] (setting [7]), 29.8 µM; with HLA-A*02:01 [5] (setting [7]), 13.4 µM.

FNPMIVELA: the IC50 with HLA-A*02:02 (setting [8]) was 0.937 µM; with HLA-A*68:02 [4] (setting [8]), 1.62 µM; in the test with HLA-A*02:03 (setting [8]) it was 11.6 µM; with HLA-A*02:06 [2] (setting [8]), 12.6 µM; with HLA-A*02:01 [5] (setting [8]) it was 25.2 µM.

On to FVETLARSI, for which the half-inhibitory concentration (IC50) with HLA-A*02:02 (setting [8]) came out at 0.382 µM; with HLA-A*02:06 [6] (setting [8]), 4.33 µM; with HLA-A*02:03 (setting [8]) it was 6.18 µM; with HLA-A*02:01 [5] (setting [8]) it was 5.26 µM; with HLA-A*68:02 [3] (setting [8]), 11.7 µM.

For GARVIWMDA, the IC50 was found to be 4.61 µM with HLA-A*02:02 (setting [7]); 2.14 µM with HLA-A*02:06 [6] (setting [7]); 9.14 µM with HLA-A*02:03 (setting [7]); 7.73 µM in the test with HLA-A*02:01 [5] (setting [7]); 12 µM with HLA-A*68:02 [3] (setting [7]).

As to GILHLILWIL, the concentration for half-maximal inhibition (IC50) is 4.52 µM in the test with HLA-A*02:02 (setting [8]); 2.54 µM with HLA-A*02:06 [6] (setting [8]); 7.7 µM with HLA-A*02:03 (setting [8]); 16.7 µM with HLA-A*02:01 [5] (setting [8]); 8.03 µM in the test with HLA-A*68:02 [3] (setting [8]).

Take IAGIILLIL: the half-maximal inhibitory concentration (IC50) with HLA-A*02:02 (setting [7]) is 4.19 µM; in the test with HLA-A*02:01 [1] (setting [7]), 3.23 µM; with HLA-A*02:03 (setting [7]), 52.9 µM; with HLA-A*02:06 [2] (setting [7]) it was not below 70 µM; with HLA-A*68:02 [3] (setting [7]) it was 8.8 µM.

Turning to IASKINNNRI, the concentration for half-maximal inhibition (IC50) with HLA-A*02:02 (setting [7]) came out at 0.732 µM; in the test with HLA-A*68:02 [4] (setting [7]) it was 0.163 µM; with HLA-A*02:03 (setting [7]), 18.5 µM; in the test with HLA-A*02:06 [2] (setting [7]), 9.42 µM; with HLA-A*02:01 [5] (setting [7]), 30.8 µM.

Take IISTDQDTM: the IC50 with HLA-A*02:02 (setting [7]) was found to be 4.3 µM; with HLA-A*02:06 [6] (setting [7]), 2.36 µM; with HLA-A*02:03 (setting [7]), 33.2 µM; with HLA-A*02:01 [5] (setting [7]), 5.87 µM; with HLA-A*68:02 [3] (setting [7]), 6.69 µM.

On to IMLIIFWFSL, for which the IC50 is 1.54 µM with HLA-A*02:02 (source organism: SARS-CoV1); 3.83 µM in the test with HLA-A*02:01 [1] (source organism: SARS-CoV1); 14.9 µM with HLA-A*02:03 (source organism: SARS-CoV1); 16.8 µM with HLA-A*02:06 [2] (source organism: SARS-CoV1); not below 70 µM in the test with HLA-A*68:02 [3] (source organism: SARS-CoV1).

Consider KISVEKIKQT, for which the half-inhibitory concentration (IC50) is 1.23 µM with HLA-A*02:02 (setting [7]); 4.67 µM in the test with HLA-A*02:01 [1] (setting [7]); 8.96 µM in the test with HLA-A*02:03 (setting [7]); 21 µM with HLA-A*02:06 [2] (setting [7]); 11.2 µM with HLA-A*68:02 [3] (setting [7]).

Take KSYFTNAAL: the IC50 with HLA-A*02:02 (setting [9]) was found to be 0.593 µM; with HLA-A*02:01 [1] (setting [9]), 4.97 µM; in the test with HLA-A*68:02 [4] (setting [9]), 0.106 µM; in the test with HLA-A*02:03 (setting [9]), 7.18 µM; in the test with HLA-A*02:06 [2] (setting [9]), 12 µM.

As for LCFWSAIFFT, the 50% inhibitory concentration (IC50) came to 2.61 µM in the test with HLA-A*02:02 (setting [10]); 1.82 µM with HLA-A*68:02 [4] (setting [10]); 30.3 µM with HLA-A*02:03 (setting [10]); 34.6 µM with HLA-A*02:06 [2] (setting [10]); 5.57 µM with HLA-A*02:01 [5] (setting [10]).

For LISILMIFI, the half-maximal inhibitory concentration (IC50) with HLA-A*02:02 (setting [7]) was determined as 2.37 µM; with HLA-A*02:01 [1] (setting [7]) it was 1.29 µM; with HLA-A*02:03 (setting [7]) it was 5 µM; in the test with HLA-A*02:06 [2] (setting [7]), 7.03 µM; with HLA-A*68:02 [3] (setting [7]), 10.5 µM.

Regarding LNIALVAVSL, the IC50 was 0.18 µM with HLA-A*02:02 (setting [9]); 1.25 µM with HLA-A*02:01 [1] (setting [9]); 0.52 µM with HLA-A*68:02 [4] (setting [9]); 12.5 µM with HLA-A*02:03 (setting [9]); 13.2 µM with HLA-A*02:06 [2] (setting [9]).
